In US20230212306A1 (Daiichi Sankyo, published 2023):

T1: human TLR7-Flag-His×6 (human TLR7 variant 2), expressed in Ba/F3 cells together with human Unc93B1-HA×2 (human, UniProt Q9NYK1 27-1049)
T1 construct: Cells were permeabilised with 0.1% saponin before staining; also called hTLR7-Flag-His×6; not shown: Flag-His×6 tag added to the C-terminus
T1 sequence: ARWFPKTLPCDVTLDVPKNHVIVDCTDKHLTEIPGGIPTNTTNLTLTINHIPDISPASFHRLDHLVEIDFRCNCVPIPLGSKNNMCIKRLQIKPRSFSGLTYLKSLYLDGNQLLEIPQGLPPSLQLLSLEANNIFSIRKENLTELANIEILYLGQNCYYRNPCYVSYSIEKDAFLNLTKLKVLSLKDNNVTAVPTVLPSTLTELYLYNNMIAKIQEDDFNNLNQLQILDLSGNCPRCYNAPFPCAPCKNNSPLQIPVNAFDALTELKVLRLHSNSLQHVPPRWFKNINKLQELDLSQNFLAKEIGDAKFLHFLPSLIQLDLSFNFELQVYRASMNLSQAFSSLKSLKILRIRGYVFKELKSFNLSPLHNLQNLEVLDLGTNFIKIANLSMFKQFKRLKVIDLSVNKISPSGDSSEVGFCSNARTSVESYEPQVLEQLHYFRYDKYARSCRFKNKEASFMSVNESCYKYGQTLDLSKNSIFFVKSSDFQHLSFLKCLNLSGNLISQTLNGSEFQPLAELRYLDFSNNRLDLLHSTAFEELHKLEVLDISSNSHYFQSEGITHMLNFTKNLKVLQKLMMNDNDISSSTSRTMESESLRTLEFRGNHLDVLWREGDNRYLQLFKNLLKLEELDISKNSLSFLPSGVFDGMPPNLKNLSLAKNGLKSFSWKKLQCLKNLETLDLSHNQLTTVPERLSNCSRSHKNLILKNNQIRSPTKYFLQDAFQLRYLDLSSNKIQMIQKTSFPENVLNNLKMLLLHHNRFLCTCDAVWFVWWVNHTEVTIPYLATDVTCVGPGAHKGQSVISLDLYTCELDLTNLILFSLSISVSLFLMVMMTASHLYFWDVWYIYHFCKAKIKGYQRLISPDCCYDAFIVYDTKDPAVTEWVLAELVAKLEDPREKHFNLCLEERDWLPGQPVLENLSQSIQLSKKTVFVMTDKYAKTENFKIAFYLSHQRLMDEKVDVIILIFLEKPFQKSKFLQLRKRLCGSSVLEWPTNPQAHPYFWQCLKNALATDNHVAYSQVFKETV

T2: mouse TLR7-Flag-His×6, expressed in Ba/F3 cells (mouse, UniProt P58681 27-1050)
T2 construct: cells permeabilised with 0.1% saponin; not shown: Flag-His×6 tag added to the C-terminus
T2 sequence: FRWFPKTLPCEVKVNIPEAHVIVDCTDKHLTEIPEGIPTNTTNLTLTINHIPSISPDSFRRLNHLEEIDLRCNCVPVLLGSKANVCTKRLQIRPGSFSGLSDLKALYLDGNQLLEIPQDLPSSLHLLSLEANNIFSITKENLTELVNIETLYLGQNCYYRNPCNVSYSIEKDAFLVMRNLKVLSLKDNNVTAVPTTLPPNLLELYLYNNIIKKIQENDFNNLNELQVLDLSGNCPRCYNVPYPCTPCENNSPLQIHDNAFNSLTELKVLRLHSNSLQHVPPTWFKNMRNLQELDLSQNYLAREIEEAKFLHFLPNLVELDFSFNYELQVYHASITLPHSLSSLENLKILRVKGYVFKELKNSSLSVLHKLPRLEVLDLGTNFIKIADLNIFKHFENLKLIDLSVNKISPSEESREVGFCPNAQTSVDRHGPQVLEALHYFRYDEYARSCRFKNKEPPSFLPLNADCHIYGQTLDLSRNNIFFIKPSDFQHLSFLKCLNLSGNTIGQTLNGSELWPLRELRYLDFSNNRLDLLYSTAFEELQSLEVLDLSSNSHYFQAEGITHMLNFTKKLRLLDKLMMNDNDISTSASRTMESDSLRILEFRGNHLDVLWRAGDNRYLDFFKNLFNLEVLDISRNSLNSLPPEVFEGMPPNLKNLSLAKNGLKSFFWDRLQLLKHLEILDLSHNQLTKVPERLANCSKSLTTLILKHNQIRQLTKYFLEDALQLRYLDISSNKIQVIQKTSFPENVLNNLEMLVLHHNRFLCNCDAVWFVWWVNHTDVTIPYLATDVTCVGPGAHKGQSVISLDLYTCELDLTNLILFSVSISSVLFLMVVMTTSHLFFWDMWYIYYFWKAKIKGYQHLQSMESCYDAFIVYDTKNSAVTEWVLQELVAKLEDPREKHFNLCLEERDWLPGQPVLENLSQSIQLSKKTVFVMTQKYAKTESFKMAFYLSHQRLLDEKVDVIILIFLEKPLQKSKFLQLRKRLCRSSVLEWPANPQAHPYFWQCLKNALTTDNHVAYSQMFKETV

T3: mouse TLR7-Flag, expressed in HEK293 cells (mouse, UniProt P58681 27-1050)
T3 construct: not shown: Flag tag
T3 sequence: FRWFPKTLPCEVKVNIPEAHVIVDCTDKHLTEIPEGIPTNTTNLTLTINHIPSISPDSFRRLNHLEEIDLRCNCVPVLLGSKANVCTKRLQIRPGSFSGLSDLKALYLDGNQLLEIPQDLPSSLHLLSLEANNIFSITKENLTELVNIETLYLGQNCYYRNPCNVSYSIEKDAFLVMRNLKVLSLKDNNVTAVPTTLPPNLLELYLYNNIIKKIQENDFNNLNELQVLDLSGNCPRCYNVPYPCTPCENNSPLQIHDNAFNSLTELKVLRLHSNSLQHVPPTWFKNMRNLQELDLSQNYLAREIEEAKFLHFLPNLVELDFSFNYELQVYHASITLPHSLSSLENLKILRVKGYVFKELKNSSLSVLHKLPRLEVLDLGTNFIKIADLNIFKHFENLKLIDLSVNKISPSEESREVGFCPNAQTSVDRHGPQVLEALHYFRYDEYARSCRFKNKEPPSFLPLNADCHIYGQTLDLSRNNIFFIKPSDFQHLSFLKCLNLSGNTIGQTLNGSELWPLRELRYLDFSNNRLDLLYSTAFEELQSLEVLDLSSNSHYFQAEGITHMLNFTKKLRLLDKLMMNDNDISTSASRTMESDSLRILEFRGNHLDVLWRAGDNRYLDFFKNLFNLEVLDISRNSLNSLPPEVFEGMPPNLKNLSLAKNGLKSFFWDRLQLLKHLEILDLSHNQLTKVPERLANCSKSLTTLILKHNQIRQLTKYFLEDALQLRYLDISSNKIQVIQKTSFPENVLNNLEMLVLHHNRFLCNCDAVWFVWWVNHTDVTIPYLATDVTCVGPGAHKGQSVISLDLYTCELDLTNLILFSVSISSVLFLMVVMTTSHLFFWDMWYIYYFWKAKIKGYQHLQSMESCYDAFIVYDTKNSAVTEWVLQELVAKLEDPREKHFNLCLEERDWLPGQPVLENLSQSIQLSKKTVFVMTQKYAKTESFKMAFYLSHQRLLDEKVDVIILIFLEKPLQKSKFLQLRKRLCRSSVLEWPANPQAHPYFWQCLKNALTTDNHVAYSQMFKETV


What was measured:
[1] = target: T1, human TLR7-Flag-His×6 (human TLR7 …); assay: flow cytometry (MFI) on saponin-permeabilised Ba/F3 cells expressing human TLR7-Flag-His×6/human Unc93B1-HA×2
From the text: (§1) The Ba/F3 cell line expressing human TLR7-Flag-His×6/human Unc93B1-HA×2 established above in 1)-1-1, the Ba/F3 cell line expressing mouse TLR7-Flag-His×6 established above in 2)-1-1, the Ba/F3 cell line expressing rat TLR7-Flag-His×6×2 established above in 2)-1-2, and the Ba/F3 cell line expressing monkey TLR7-Flag-His×6 established above in 2)-1-3 were subjected to membrane permeation with 0.1% Saponin and stained using AT01 antibody, NB7 antibody, and FAN2 antibody, and a secondary antibody, Goat anti-mouse IgG (H+L)-PE (eBioscience). The binding selectivity of each antibody was evaluated by comparing the average fluorescence intensity (MFI) based on flow cytometry analysis.

[2] = target: T2, mouse TLR7-Flag-His×6, expressed in …; assay: flow cytometry (MFI) on saponin-permeabilised Ba/F3 cells expressing mouse TLR7-Flag-His×6
From the text: as §1

[3] = target: T3, mouse TLR7-Flag, expressed in HEK293 …; assay: flow cytometry on fixed and permeabilised HEK293 cells expressing mouse TLR7-Flag
From the text: The HEK293 cells expressing human TLR7 (variant 1)-Flag prepared in 8)-1, the HEK293 cells expressing human TLR7 (variant 2)-Flag prepared in 8)-2, the HEK293 cells expressing monkey TLR7-Flag prepared in 8)-3, the HEK293 cells expressing mouse TLR7-Flag prepared in 8)-4, and the HEK293 cells expressing rat TLR7-Flag prepared in 8)-5 were immobilized/subjected to membrane permeation with a Fixation and Permeabilization Solution (Becton, Dickinson and Company) and thereafter stained using huAT01_H3L2_IgG1LALA, which is one of the humanized anti-human TLR7 antibodies, and ALEXA FLUOR® 647 AffiniPure Goat anti-human IgG+IgM (H+L) (Jackson ImmunoResearch Inc.), which is the secondary antibody.
The binding of the humanized anti-human TLR7 antibody to human TLR7 was detected based on flow cytometry (Miltenyi Biotec K.K.), and the data was analyzed using software (Flowjo) which analyzes the data of flow cytometry.

binding result [1]	binding result [2]	binding result [3]	Binder
binds	no binding		NB7 antibody (antibody, IgG1, V domains shown, also called mouse anti-human TLR7 antibody (NB7)) VH: DVQLQESGPGLVKPSQSLSLTCTVTGYSITSDYAWNWIRQFPGNKLEWMGHISYRGNTNYNPSLKSRISITRDTSKNQFFLQLNSVTTEDTATYYCASWNYYGYVDYAMDYWGQGTSVTVSS VL: DIQMTQTPSSLSASLGDRVTISCRASQDISNYLNWYQQKPDGTVKLLIYYTSRLHSGVPSRFSGSGSGTDYSLTINNLEQEDIATYFCQQGDTFPTFGGGTKLEIK
binds	no binding		FAN2 antibody (antibody, IgG1, V domains shown, also called mouse anti-human TLR7 antibody (FAN2)) VH: QVQLKESGPGLVAPSQSLSITCTVSGFSLTGYGVNWVRQPPGKGLEWLGMIWGDGSTDYNSALKSRLSIRKDNSKSQVFLKMNSLQTDDTARYYCARDKGYDGYYYAMDYWGQGTSVTVSS VL: DIQMTQSPASLSASVGETVTITCRASENIYSYLAWYQQKQGKSPQLLVYDAKTLAEGVPSRFSGSGSGTQFSLKINSLQPEDFGSYYCQHHYGIPYTFGGGTKLEIK
		no binding	huAT01_H3L2_IgG1LALA antibody (antibody, V domains shown, Humanized AT01; heavy huAT01_H3_IgG1LALA, light huAT01_L2) VH: QVQLVQSGAEVKKPGASVKVSCKASGYTFTNNWLHWVRQAPGQGLEWMGDIYPSNGRTNYAQKFQGRVTLTVDKSTSTAYMELSSLRSEDTAVYFCARERGYFDYWGQGTLVTVSS VL: DIQMTQSPSSLSASVGDRVTITCKASQDINKYIAWYQQKPGKAPKLLIHYTSTLQPGIPSRFSGSGSGRDYTLTISSLQPEDFATYYCLQYDYLLTFGQGTKVEIKR
binds	no binding		AT01 antibody (antibody, IgG1, V domains shown, also called mouse anti-human TLR7 antibody (AT01)) VH: QVQLQQPGAELVKPGASVNLSCKASGYTFTNNWLHWVKQRPGRGLEWIGDIYPSNGRTNYNEQFKTKATLTVDKSSSTAYMQLSSLTSEDSAVYFCARERGYFDYWGQGTALTVSS VL: DIQMTQSPSSLSTSLGGKVTITCKASQDINKYIAWYQHKPGKGPRLLIHYTSTLQPGIPSRFSGSGSGRDYSFSISNLEPEDIATYYCLQYDYLLTFGAGTKLELK
